In patent EP0696198B1 one finds IC50, prothrombinase complex assay (thrombin generation) and Ki data, which are given here for 1 substance.

One may read the Ki as a measure of affinity in units of concentration, obtained from inhibition or displacement.

In experiment [1] the target is Factor Xa. As to the kind of experiment: cell-based or functional assay.
The target in experiment [2] is Factor Xa. As to the kind of experiment: reconstituted prothrombinase complex assay (250 pM FXa, 2.67 µM prothrombin), thrombin generation.
Experiment [3] deals with Factor Xa. Description: modified prothrombinase complex assay (50 pM FXa, 1.35 µM prothrombin).

For “naturally occurring FXa inhibitor isolated from dilute leech saliva (DLS) of Hirudo medicinalis”, the IC50, prothrombinase complex assay (thrombin generation) in experiment [1] turned out to be 0.19 nM. The values for the Ki in experiment [2] and in experiment [3] were 0.072 nM and 0.12 nM, respectively.
